From patent publication US20030108986A1, “Compositions and methods comprising G-protein coupled receptors” (Euroscreen, S.A., priority 2001, published 2003)

Experiments:
GPCRx11 (human) = GPCRx11 (human) (UniProt Q96LB1)
GPCRx11 = target: T1, GPCRx11 (Homo sapiens, UniProt Q96LB1); assay: aequorin-based assay of GPCRx11 activation by angiopeptin; type: cell-based
T1 construct: expressed in transfected cells; host or cells: CHO-K1
T1 sequence (Q96LB1 1-330): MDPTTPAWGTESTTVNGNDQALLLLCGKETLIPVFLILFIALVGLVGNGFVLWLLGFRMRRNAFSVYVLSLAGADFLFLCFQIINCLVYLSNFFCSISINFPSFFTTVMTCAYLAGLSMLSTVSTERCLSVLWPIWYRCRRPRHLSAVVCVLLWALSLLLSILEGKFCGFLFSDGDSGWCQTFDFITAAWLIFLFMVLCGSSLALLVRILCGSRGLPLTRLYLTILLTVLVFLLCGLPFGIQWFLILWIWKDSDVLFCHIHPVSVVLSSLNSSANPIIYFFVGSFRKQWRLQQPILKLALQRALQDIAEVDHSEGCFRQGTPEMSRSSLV
Description: As used herein, the term “aequorin-based assay” refers to an assay for GPCR activity that measures elevations in intracellular calcium induced by activated GPCRs, wherein intracellular calcium flux is measured by the luminescence of mitochondiral aequorin expressed in the cell.
The aequorin assay takes advantage of the responsiveness of mitochondrial apoaequorin to intracellular calcium release induced by the activation of GPCRs (Stables et al., 1997, Anal. Biochem. 252:115-126; Detheux et al., 2000, J. Exp. Med., 192 1501-1508; both of which are incorporated herein by reference). Briefly, GPCR-expressing clones are transfected to coexpress mitochondrial apoaequorin and Gα16. Cells are incubated with 5 μM Coelenterazine H (Molecular Probes) for 4 hours at room temperature, washed in DMEM-F12 culture medium and resuspended at a concentration of 0.5×10^6 cells/ml. Cells are then mixed with test agonist, or ligand molecules and light emission by the aequorin is recorded with a luminometer for 30 sec. Results are expressed as Relative Light Units (RLU). Controls include assays using membranes isolated from cells not expressing GPCRs (mock transfected), in order to exclude possible non-specific effects of the candidate compound. […]

angiopeptin (peptide)
EC50 (read off the curve); aequorin luminescence (RLU) in transfected CHO-K1 cells (GPCRx11 (human)): 100 nM | EC50; aequorin luminescence (RLU) in transfected CHO-K1 cells (GPCRx11 (human)): 159 nM

CC(C)[C@@H]1NC(=O)[C@H](CCCCN)NC(=O)[C@@H](Cc2c[nH]c3ccccc23)NC(=O)[C@H](Cc2ccc(O)cc2)NC(=O)[C@@H](NC(=O)[C@H](N)Cc2ccc3ccccc3c2)CSSC[C@@H](C(=O)N[C@H](C(N)=O)[C@@H](C)O)NC1=O [angiopeptin]
ligand of the receptor GPCRx11 (GPCRx11; GPCRx11 (SEQ ID NO: 12)): natural ligand | EC50 (GPCRx11; GPCRx11 polypeptide bound by angiopeptin, transfected CHO-K1 cells (FIG. 16), read-out: EC50 of stimulation of mitochondrial aequorin fluorescence): ≤ 160 nM
